Assay results: PMC2747663

How the values were obtained:
[1] = target: full-length ERBB3 (pIND/TRE-based), recombinant and overexpressed in CHO cells (human) (UniProt P21860); assay: cross-linking
[2] = target: soluble extracellular domains (ECD) of ERBB3, V5 and His6 epitope-tagged (human) (UniProt P21860); assay: cross-linking

stoichiometry N [1]	stoichiometry N [2]	Substance
2	–	full-length ERBB3 (pIND/TRE-based), recombinant and overexpressed in CHO cells (from UniProt P21860 20-1342) (receptor)
–	2	soluble extracellular domains (ECD) of ERBB3, V5 and His6 epitope-tagged (from UniProt P21860 20-643) (domain or fragment)
